According to patent US20220227866A1 (VELOSBIO, published 2022):
Values joined by “and” are separate entries in the source; they are usually repeats but may differ in a detail not shown here. Equal entries are not always repeated.

Assays:
[1] = target: T1, soluble biotinylated human ROR1 extracellular domain (human, UniProt Q01973 30-406, biotinylated with EZ-Link Sulfo-NHS-LC-Biotin at a 1:5 molar ratio); test: ELISA, captured construct, biotinylated ROR1 titrated; second of the two values given
T1 construct: Acro Biosystems cat; whole entry named; also called b-ROR1; soluble b-ROR1
Protocol: (§1) To measure the binding of bispecific constructs to soluble ROR1, a 96-well Costar-3366 plate was coated with 50 μL/well of 2 μg/mL goat anti-human kappa (Southern Biotech cat. #2060-01) in PBS overnight at 4° C. The plate was rinsed once with PBS-T, blocked with 100 μL/well 5% M-P for 1 h at 25° C., rinsed once with PBS-T, and 2 μg/mL of the bispecific binding molecule was added and incubated for 1 h at 25° C. The plate was washed three times with PBS-T. Biotinylated ROR1 was diluted serially, 3-fold in 5% M-P and was incubated for 1 h at 25° C. (50 μL/well). The plate was washed three times with PBS-T. To detect the binding of b-ROR1, 50 μL/well Neutravidin-HRP (Pierce cat. #31030) diluted 1:5000 in 1% BSA-PBS was added for 1 h at 25° C. […] The reaction was terminated by the addition of 2 N H₂SO₄ and the A450 was determined using a Spectramax plate reader.
(§2) The stronger binding observed with bivalent constructs versus monovalent constructs in cell assays and ELISAs in which the antigen is immobilized is consistent with an avidity effect. To determine if this was the case, binding to soluble monomeric ROR1 was assessed by immobilizing the bispecific binding molecules on a microtiter plate coated with goat anti-human kappa antibody and titrating biotinylated RORL. […]

[2] = target: T2, human ROR1 on cells (human, UniProt Q01973 30-937); test: cell-based or functional assay
[3] = target: T3, recombinant human ROR1 extracellular domain (human, UniProt Q01973 30-406); test: ELISA, immobilised ROR1 ECD, construct titrated
T3 construct: Bought (Acro Biosystems cat. R01-H522Y); whole entry named; also called ROR1-ECD; immobilized ROR1
Protocol: (§3) A 96-well Costar-3366 plate was coated with 50 μL/well of 2 μg/mL […] (Acro Biosystems cat. #R01-H522Y) in PBS overnight at 4° C. The plate was rinsed once with PBS containing 0.05% Tween 20 (PBS-T) and blocked with 100 μL/well of 5% non-fat milk in PBS (5% M-P) for 1 h at 25° C. Antibody samples were serially diluted 2-fold using 5% M-P and were incubated for 1 h at 25° C. (50 μL/well). The plate was washed three times with PBS-T and 50 μL/well anti-human kappa, HRP conjugate (Southern Biotech cat. #2060-05) diluted 10,000-fold in 5% M-P was added for 1 h at 25° C. The plate was washed three times with PBS-T, developed with 50 μL/well 1-Step Ultra TMB-ELISA (Thermo Scientific cat. #34028). The reaction was terminated by the addition of 2 N H₂SO₄ and the A450 was determined using a Spectramax plate reader.
(§4) Next, the binding of bispecific binding molecules to ROR was characterized by ELISA using recombinantly-expressed extracellular domain of RORL. ROR was immobilized on a microtiter plate, the bispecific binding molecules were titrated, and binding was quantitated with an anti-human kappa-HRP reagent. Consistent with the cell binding data, all constructs bound ROR1 in a concentration-dependent manner (FIG. 6). Moreover, monovalent ROR1 constructs 13-15 bound less tightly than all but two of the bivalent constructs.

[4] = target: T1, soluble biotinylated human ROR1 …; test: ELISA, captured construct, biotinylated ROR1 titrated; first of the two values given
Protocol: as §1, §2

[5] = target: T4, human CD3 on Jurkat cells (human, UniProt P09693 23-182; P04234 22-171; P07766 23-207); test: flow cytometry on Jurkat cells
T4 construct: GenBank NP_000064.1, NP_000723.1, NP_000724.1
Summary of the method: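 Jurkat cells (2.5E5 per condition) incubated with bispecific molecule in PBS/2% FBS on ice for 20 min, then detected with PE-labelled anti-human Fc (1:500, 20 min on ice). Cells fixed in 2% paraformaldehyde and bound antibody measured by flow cytometry.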

[6] = target: T2, human ROR1 on cells; test: cell-based or functional assay; remark: listed apart in the source
[7] = target: T1, soluble biotinylated human ROR1 …; test: ELISA, captured antibody, biotinylated ROR1 titrated
Protocol: as §1, §2

[8] = target: T3, recombinant human ROR1 extracellular …; test: ELISA, immobilised ROR1 ECD, antibody titrated
Protocol: as §3, §4

[9] = target: T2, human ROR1 on cells; test: flow cytometry, ROR1-transfected MEC cells, 30 µg/mL
Protocol: Internalization of bispecific binding molecules was measured using a pulse-chase methodology that quantitates non-internalized, cell surface antibody at 0, 30, 60, 120, 180, and 240 minutes using flow cytometry. ROR1-transfected MEC cells were washed with cold PBS and resuspended at 1×10⁷ per mL in cold incubation buffer (RPMI with 2% FBS—Fisher/Gibco cat. #16140071). Then, 3.5×10⁶ cells were aliquoted to microcentrifuge tubes for each bispecific construct tested. An equal volume (350 μL) of bispecific binding molecule was combined with the cells to make a final concentration of 30 μg/mL. […] Cells and antibody were incubated on ice for 20 minutes, washed five times with 1 mL of cold FACS buffer (PBS with 2% FBS), and resuspended in 1.4 mL of incubation buffer. Subsequently, the samples were incubated at 37° C. for 0, 30, 60, 120, 180, and 240 minutes after which time 200 μL of each sample was transferred to ice to halt internalization.
Samples for each construct and timepoint were split in half (100 μL each) and spun down. Half of the samples were resuspended in 100 μL secondary antibody (goat anti-human IgG-PE, Fc-gamma specific—eBiosciences cat. #12-4998) to detect bound bispecific constructs. The other half was stained with 100 μL cocktail of UC961-PE and 4A5-AlexaFluor647. […] Subsequently, fixed cells were washed once with FACS buffer and analyzed.

[10] = target: T1, soluble biotinylated human ROR1 …; test: ELISA, captured construct, biotinylated ROR1 titrated

T2 sequence (Q01973 30-937 limits assumed): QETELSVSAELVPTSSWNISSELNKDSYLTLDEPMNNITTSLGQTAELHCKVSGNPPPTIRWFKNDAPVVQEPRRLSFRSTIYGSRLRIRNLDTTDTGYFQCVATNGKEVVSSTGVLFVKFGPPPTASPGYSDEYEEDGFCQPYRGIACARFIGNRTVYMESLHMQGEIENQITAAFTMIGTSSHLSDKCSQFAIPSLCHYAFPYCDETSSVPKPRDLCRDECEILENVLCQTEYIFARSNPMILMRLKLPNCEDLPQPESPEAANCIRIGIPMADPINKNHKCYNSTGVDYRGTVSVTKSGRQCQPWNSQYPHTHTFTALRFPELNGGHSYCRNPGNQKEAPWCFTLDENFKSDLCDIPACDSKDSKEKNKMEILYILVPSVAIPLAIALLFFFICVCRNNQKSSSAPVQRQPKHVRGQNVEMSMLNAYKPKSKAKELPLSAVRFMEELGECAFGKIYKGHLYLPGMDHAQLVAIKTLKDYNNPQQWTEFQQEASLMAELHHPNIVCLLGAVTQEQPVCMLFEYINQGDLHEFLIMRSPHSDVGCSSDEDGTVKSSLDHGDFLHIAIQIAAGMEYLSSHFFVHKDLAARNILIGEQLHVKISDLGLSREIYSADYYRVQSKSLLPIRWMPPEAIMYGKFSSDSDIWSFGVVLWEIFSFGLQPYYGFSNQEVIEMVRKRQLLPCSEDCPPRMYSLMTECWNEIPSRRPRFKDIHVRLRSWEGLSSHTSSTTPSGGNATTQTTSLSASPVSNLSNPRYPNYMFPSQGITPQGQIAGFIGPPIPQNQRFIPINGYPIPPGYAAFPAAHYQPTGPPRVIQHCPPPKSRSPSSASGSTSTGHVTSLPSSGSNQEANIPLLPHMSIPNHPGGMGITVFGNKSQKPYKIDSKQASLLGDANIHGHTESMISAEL
T3 sequence (Q01973 30-406 limits assumed): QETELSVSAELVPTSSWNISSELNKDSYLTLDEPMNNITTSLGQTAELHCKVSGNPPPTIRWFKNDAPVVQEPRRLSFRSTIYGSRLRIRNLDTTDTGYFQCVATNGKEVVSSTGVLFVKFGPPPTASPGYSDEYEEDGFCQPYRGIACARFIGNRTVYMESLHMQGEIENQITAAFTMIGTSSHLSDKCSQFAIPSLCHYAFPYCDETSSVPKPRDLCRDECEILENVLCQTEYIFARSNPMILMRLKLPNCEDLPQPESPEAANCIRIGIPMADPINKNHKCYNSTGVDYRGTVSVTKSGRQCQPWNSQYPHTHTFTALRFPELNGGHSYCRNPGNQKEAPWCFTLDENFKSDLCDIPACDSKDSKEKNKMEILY
T1 sequence (Q01973 30-406 limits assumed): as above
T4 sequence (P09693 23-182 limits assumed, chain 1 of 3): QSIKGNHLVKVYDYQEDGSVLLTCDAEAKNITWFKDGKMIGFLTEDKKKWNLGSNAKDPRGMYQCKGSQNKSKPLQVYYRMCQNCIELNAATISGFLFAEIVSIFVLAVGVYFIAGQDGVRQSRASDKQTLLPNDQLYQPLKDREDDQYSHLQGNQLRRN
T4 sequence (P04234 22-171 limits assumed, chain 2 of 3): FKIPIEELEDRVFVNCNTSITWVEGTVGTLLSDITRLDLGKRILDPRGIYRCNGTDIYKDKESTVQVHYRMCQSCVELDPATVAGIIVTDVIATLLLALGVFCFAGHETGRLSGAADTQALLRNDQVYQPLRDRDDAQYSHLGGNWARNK
T4 sequence (P07766 23-207 limits assumed, chain 3 of 3): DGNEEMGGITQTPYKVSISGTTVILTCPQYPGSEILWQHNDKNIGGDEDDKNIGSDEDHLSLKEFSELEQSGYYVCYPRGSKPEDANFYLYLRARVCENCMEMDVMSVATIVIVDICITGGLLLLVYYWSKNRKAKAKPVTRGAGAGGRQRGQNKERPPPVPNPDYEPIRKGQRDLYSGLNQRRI

Kd [1] [nM]	EC50, LDH release, A549 [2]	EC50, LDH release, A4573 [2]	EC50, LDH release, JeKo-1 [2]	EC50, LDH release, MDA-MB-468 [2]	EC50, LDH release, Mino [2]	EC50, LDH release, NCI-H1975 [2]	EC50, LDH release, Saos-2 [2]	Max. LDH Release, Mino [2] [%]	Kd [3] [nM]	Kd [4] [nM]	binding result [5]	EC50, LDH release, ROR1-transfected MEC, one PBMC donor [6] [ng/mL]	Kd [7]	Kd [8] [nM]	EC50, LDH release, ROR1-transfected MEC [2]	Max. LDH Release, ROR1-transfected MEC [2] [%]	binding extent relative to the saturated MFI of constructs 1 and 7 at time 0 [9] [%]	Kd [10] [nM]	Binder
0.229	9.95 ng/mL and 49.8 pM	9.71 ng/mL and 48.6 pM	1.71 ng/mL and 8.5 pM	5.55 ng/mL and 27.8 pM	0.75 ng/mL and 3.8 pM	2.3 ng/mL and 11.5 pM	14.6 ng/mL and 73.2 pM	75	0.158	0.268	binds	< 0.1							Bispecific construct 9 (bispecific antibody, human IgG1, kappa, anti-CD3 scFv Ab10 (SP34-based); ROR1 arm Ab1; valency 2/2) heavy: not shown light: DIVMTQTPLSLPVTPGEPASISCRASKSISKYLAWYQQKPGQAPRLLIYSGSTLQSGIPPRFSGSGYGTDFTLTINNIESEDAAYYFCQQHDESPYTFGEGTKVEIKRTVAAPSVFIFPPSDEQLKSGTASVVCLLNNFYPREAKVQWKVDNALQSGNSQESVTEQDSKDSTYSLSSTLTLSKADYEKHKVYACEVTHQGLSSPVTKSFNRGECGGGGSGGGGSEVQLVESGGGLVQPGGSLRLSCAASGFTFNTYAMNWVRQAPGKGLEWVARIRSKYNNYATYYADSVKGRFTISRDDSKNTLYLQMNSLRAEDTAVYYCVRHGNFGNSYVSYFAYWGQGTTVTVSSGGGGSGGGGSGGGGSGGGGSEIVVTQSPATLSVSPGERATLSCRSSTGAVTAANYANWVQEKPGQAFRGLIGGANKRAPGVPARFSGSLSGDEATLTISSLQSEDFAVYYCALFYSNLWVFGQGTKLEIK
													0.158 nM and 0.145 nM	0.037					parental anti-ROR1 IgG (Ab1) (antibody, V domains shown, also called Control; parental IgG) VH: QVQLQESGPGLVKPSQTLSLTCTVSGYAFTAYNIHWVRQAPGQGLEWMGSFDPYDGGSSYNQKFKDRLTISKDTSKNQVVLTMTNMDPVDTATYYCARGWYYFDYWGHGTLVTVSS VL: DIVMTQTPLSLPVTPGEPASISCRASKSISKYLAWYQQKPGQAPRLLIYSGSTLQSGIPPRFSGSGYGTDFTLTINNIESEDAAYYFCQQHDESPYTFGEGTKVEIKR
									0.194		binds				12 ng/mL and 96 pM	46	~80	0.226	Bispecific construct 13 (bispecific antibody, human IgG1, kappa, ROR1 arm Ab1; CD3 valency 1, ROR1 valency 1) heavy 1: not shown heavy 2: QVQLVQSGGGVVQPGRSLRLSCKASGYTFTRYTMHWVRQAPGKGLEWIGYINPSRGYTNYNQKVKDRFTISRDNSKNTLYLQMDSLRAEDTAVYYCARYYDDHYSLDYWGQGTTVTVSSGGGGSGGGGSGGGGSGGGGSDIQMTQSPSSLSASVGDRVTITCSASSSVSYMNWYQQKPGKAPKRWIYDTSKLASGVPSRFSGSGSGTDFTFTISSLQPEDIATYYCQQWSSNPFTFGQGTKLEIKEPKSSDKTHTCPPCPAPEAAGAPSVFLFPPKPKDTLMISRTPEVTCVVVDVSHEDPEVKFNWYVDGVEVHNAKTKPREEQYNSTYRVVSVLTVLHQDWLNGKEYKCKVSNKALPAPIEKTISKAKGQPREPQVYTLPPSRDELTKNQVSLSCAVKGFYPSDIAVEWESNGQPENNYKTTPPVLDSDGSFFLVSKLTVDKSRWQQGNVFSCSVMHEALHNHYTQKSLSLSPGK light: DIVMTQTPLSLPVTPGEPASISCRASKSISKYLAWYQQKPGQAPRLLIYSGSTLQSGIPPRFSGSGYGTDFTLTINNIESEDAAYYFCQQHDESPYTFGEGTKVEIKRTVAAPSVFIFPPSDEQLKSGTASVVCLLNNFYPREAKVQWKVDNALQSGNSQESVTEQDSKDSTYSLSSTLTLSKADYEKHKVYACEVTHQGLSSPVTKSFNRGEC
